These results are taken from PMC8062530.

For the test, the target named is Siglec-9, Siglec-10, and Siglec-14. Nature of the test: BLI; Fc-fusions of the Siglec proteins immobilised on Protein A biosensors (ForteBio) at 5 µg/mL; PTGFRN extracellular domain in 2-fold serial dilutions starting at 100 µg/mL; equilibrium dissociation constants calculated with ForteBio Data Analysis software v. 10.0.

B1: extracellular domain of PTGFRN (aa 26-832) with a C-terminal histidine tag (domain or fragment)
chain: VPTATLVRVVGTELVIPCNVSDYDGPSEQNFDWSFSSLGSSFVELASTWEVGFPAQLYQERLQRGEILLRRTANDAVELHIKNVQPSDQGHYKCSTPSTDATVQGNYEDTVQVKVLADSLHVGPSARPPPSLSLREGEPFELRCTAASASPLHTHLALLWEVHRGPARRSVLALTHEGRFHPGLGYEQRYHSGDVRLDTVGSDAYRLSVSRALSADQGSYRCIVSEWIAEQGNWQEIQEKAVEVATVVIQPSVLRAAVPKNVSVAEGKELDLTCNITTDRADDVRPEVTWSFSRMPDSTLPGSRVLARLDRDSLVHSSPHVALSHVDARSYHLLVRDVSKENSGYYYCHVSLWAPGHNRSWHKVAEAVSSPAGVGVTWLEPDYQVYLNASKVPGFADDPTELACRVVDTKSGEANVRFTVSWYYRMNRRSDNVVTSELLAVMDGDWTLKYGERSKQRAQDGDFIFSKEHTDTFNFRIQRTTEEDRGNYYCVVSAWTKQRNNSWVKSKDVFSKPVNIFWALEDSVLVVKARQPKPFFAAGNTFEMTCKVSSKNIKSPRYSVLIMAEKPVGDLSSPNETKYIISLDQDSVVKLENWTDASRVDGVVLEKVQEDEFRYRMYQTQVSDAGLYRCMVTAWSPVRGSLWREAATSLSNPIEIDFQTSGPIFNASVHSDTPSVIRGDLIKLFCIITVEGAALDPDDMAFDVSWFAVHSFGLDKAPVLLSSLDRKGIVTTSRRDWKSDLSLERVSVLEFLLQVHGSEDQDFGNYYCSVTPWVKSPTGSWQKEAEIHSKPVFITVKMDVLNAFKYP
Regarding B1, the equilibrium dissociation constant (Kd) is 700 to 4000 nM.
